Experimental data as given in PMC3333870.

Biological target: T1, rLin28 (Lin28) (UniProt Q9H9Z2 1-209)
T1 sequence: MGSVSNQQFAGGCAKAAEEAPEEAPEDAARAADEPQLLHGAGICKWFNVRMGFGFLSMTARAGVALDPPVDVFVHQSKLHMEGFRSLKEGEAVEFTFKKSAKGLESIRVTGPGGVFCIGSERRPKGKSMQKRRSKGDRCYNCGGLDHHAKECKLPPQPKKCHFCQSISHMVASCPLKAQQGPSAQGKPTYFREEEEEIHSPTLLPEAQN
Assay: EMSA

B1: pre-let-7a-1 (structured_RNA)
RNA: GGGCUGAGGUAGUAGGUUGUAUAGUUUUAGGGUCACACCCACCACUGGGAGAUAACUAUACAAUCUACUGUCUUUCC
Kd: 1990 nM
